Laboratory results taken from the Immune Epitope Database (IEDB).

Legend:
[1] = molecular target: HLA-A*26:01; assay: IEDB peptide-MHC binding, purified MHC/direct/fluorescence; filed as Kd, often an IC50 or EC50 that approximates it; ≥ and ≤ were set here for values at or beyond the usual limits of such assays; settings: source organism: Mammarenavirus juninense
[2] = molecular target: HLA-C*12:03; assay: as above; settings: source organism: Mammarenavirus machupoense
[3] = molecular target: HLA-B*35:01; assay: IEDB peptide-MHC binding, purified MHC/competitive/fluorescence; filed as Kd, often an IC50 or EC50 that approximates it; ≥ and ≤ were set here for values at or beyond the usual limits of such assays; settings: source organism: Mammarenavirus machupoense
[4] = molecular target: HLA-B*40:01; assay: IEDB peptide-MHC binding, purified MHC/direct/fluorescence; filed as Kd, often an IC50 or EC50 that approximates it; ≥ and ≤ were set here for values at or beyond the usual limits of such assays; settings: source organism: Mycobacterium tuberculosis
[5] = molecular target: HLA-C*14:02; assay: as above
[6] = molecular target: HLA-C*06:02; assay: as above
[7] = molecular target: HLA-B*39:01; assay: IEDB peptide-MHC binding, purified MHC/competitive/fluorescence; filed as Kd, often an IC50 or EC50 that approximates it; ≥ and ≤ were set here for values at or beyond the usual limits of such assays
[8] = molecular target: HLA-A*31:01; assay: IEDB peptide-MHC binding, purified MHC/direct/fluorescence; filed as Kd, often an IC50 or EC50 that approximates it; ≥ and ≤ were set here for values at or beyond the usual limits of such assays; settings: source organism: Homo sapiens
[9] = molecular target: HLA-B*07:02; assay: as above; settings: source organism: Homo sapiens
[10] = molecular target: HLA-B*27:05; assay: as above
[11] = molecular target: HLA-A*02:01; assay: as above; settings: source organism: Camelpox virus M-96
[12] = molecular target: HLA-A*69:01; assay: as above; settings: source organism: Camelpox virus M-96
[13] = molecular target: HLA-A*24:02; assay: as above; settings: source organism: Yersinia pestis CA88-4125
[14] = molecular target: HLA-A*03:01; assay: IEDB peptide-MHC binding, purified MHC/competitive/fluorescence; ≥ and ≤ were set here for values at or beyond the usual limits of such assays; settings: source organism: Sudan ebolavirus
[15] = molecular target: HLA-A*11:01; assay: as above; settings: source organism: Sudan ebolavirus
[16] = molecular target: HLA-A*02:03; assay: IEDB peptide-MHC binding, purified MHC/direct/fluorescence; filed as Kd, often an IC50 or EC50 that approximates it; ≥ and ≤ were set here for values at or beyond the usual limits of such assays; settings: source organism: Zaire ebolavirus
[17] = molecular target: HLA-A*02:11; assay: as above; settings: source organism: Zaire ebolavirus
[18] = molecular target: HLA-A*02:12; assay: as above; settings: source organism: Zaire ebolavirus
[19] = molecular target: HLA-A*02:16; assay: as above; settings: source organism: Zaire ebolavirus
[20] = molecular target: HLA-A*02:19; assay: as above; settings: source organism: Zaire ebolavirus
[21] = molecular target: HLA-A*03:01; assay: as above; settings: source organism: Zaire ebolavirus
[22] = molecular target: HLA-A*23:01; assay: as above; settings: source organism: Zaire ebolavirus
[23] = molecular target: HLA-A*24:03; assay: as above; settings: source organism: Zaire ebolavirus
[24] = molecular target: HLA-A*29:02; assay: as above; settings: source organism: Zaire ebolavirus
[25] = molecular target: HLA-A*02:01; assay: IEDB peptide-MHC binding, purified MHC/competitive/fluorescence; filed as Kd, often an IC50 or EC50 that approximates it; ≥ and ≤ were set here for values at or beyond the usual limits of such assays; settings: source organism: Zaire ebolavirus
[26] = molecular target: HLA-A*26:01; assay: as above; settings: source organism: Zaire ebolavirus
[27] = molecular target: HLA-A*69:01; assay: as above; settings: source organism: Zaire ebolavirus
[28] = molecular target: HLA-B*15:01; assay: as above; settings: source organism: Zaire ebolavirus
[29] = molecular target: HLA-B*15:17; assay: as above; settings: source organism: Zaire ebolavirus
[30] = molecular target: HLA-B*18:01; assay: as above; settings: source organism: Zaire ebolavirus
[31] = molecular target: HLA-B*27:03; assay: as above; settings: source organism: Zaire ebolavirus
[32] = molecular target: HLA-B*46:01; assay: as above; settings: source organism: Zaire ebolavirus
[33] = molecular target: HLA-B*51:01; assay: as above; settings: source organism: Zaire ebolavirus
[34] = molecular target: HLA-B*57:01; assay: as above; settings: source organism: Zaire ebolavirus
[35] = source organism: Bacillus anthracis str. A0488
[36] = source organism: Zaire ebolavirus

In the case of DAMPGVLSY, the Kd [1] is reported as 0.0021 µM, the Kd [2] is reported as no less than 20 µM and the Kd [3] is reported as 0.0005 µM.

AEAASATPL was tested, and the Kd [4] was 0.0219 µM and the Kd ([5]; source organism: Mycobacterium tuberculosis H37Ra) was no less than 20 µM.

LRHSTAHLL was tested, and the Kd [6, 35] was 0.013 µM and the Kd [7, 35] was 0.0713 µM.

In the case of RYFSVTRPL, the Kd [8] is reported as 0.512 µM, the Kd [9] is reported as no less than 27.6 µM and the Kd ([10]; source organism: Homo sapiens) is reported as 10.6 µM. For the same sequence, the Kd ([5]; source organism: Anopheles gambiae str. PEST) was no more than 0.001 µM.

In the case of YLMPYSVYI, the Kd [11] is reported as no more than 0.001 µM, the Kd [12] is reported as no more than 0.001 µM and the Kd ([6]; source organism: Variola virus) is reported as 0.007 µM.

For TFAWASFLW, the Kd [13] was 0.003 µM.

DRLASTVIY showed an IC50 [14] of no less than 257 µM, an IC50 [15] of no less than 120 µM and a Kd [16] of no less than 20 µM. The Kd [17] was no less than 20 µM, the Kd [18] was no less than 20 µM and the Kd [19] was no less than 20 µM. For the same sequence, the Kd [20] was no less than 20 µM, the Kd [21] was no less than 20 µM and the Kd [22] was no less than 20 µM. For the same sequence, the Kd [23] was no less than 20 µM, the Kd [24] was no less than 20 µM and the Kd [10, 36] was 8.77 µM. It also gave a Kd [25] of no less than 20 µM, a Kd [26] of no less than 20 µM and a Kd [27] of no less than 20 µM. It also gave a Kd [28] of no less than 20 µM, a Kd [29] of no less than 20 µM and a Kd [30] of no less than 20 µM. For the same sequence, the Kd [31] was no less than 20 µM, the Kd [7, 36] was no less than 20 µM and the Kd [32] was no less than 20 µM. The Kd [33] was no less than 20 µM and the Kd [34] was no less than 20 µM.
